T1: IKKα (human (endogenous in A549), UniProt O15111 1-745)
T1 construct: also called CHUK; source: endogenous, A549 cells (M-PER lysate for the pull-down; fixed, permeabilised cells for FRET)
T1 sequence (looked up): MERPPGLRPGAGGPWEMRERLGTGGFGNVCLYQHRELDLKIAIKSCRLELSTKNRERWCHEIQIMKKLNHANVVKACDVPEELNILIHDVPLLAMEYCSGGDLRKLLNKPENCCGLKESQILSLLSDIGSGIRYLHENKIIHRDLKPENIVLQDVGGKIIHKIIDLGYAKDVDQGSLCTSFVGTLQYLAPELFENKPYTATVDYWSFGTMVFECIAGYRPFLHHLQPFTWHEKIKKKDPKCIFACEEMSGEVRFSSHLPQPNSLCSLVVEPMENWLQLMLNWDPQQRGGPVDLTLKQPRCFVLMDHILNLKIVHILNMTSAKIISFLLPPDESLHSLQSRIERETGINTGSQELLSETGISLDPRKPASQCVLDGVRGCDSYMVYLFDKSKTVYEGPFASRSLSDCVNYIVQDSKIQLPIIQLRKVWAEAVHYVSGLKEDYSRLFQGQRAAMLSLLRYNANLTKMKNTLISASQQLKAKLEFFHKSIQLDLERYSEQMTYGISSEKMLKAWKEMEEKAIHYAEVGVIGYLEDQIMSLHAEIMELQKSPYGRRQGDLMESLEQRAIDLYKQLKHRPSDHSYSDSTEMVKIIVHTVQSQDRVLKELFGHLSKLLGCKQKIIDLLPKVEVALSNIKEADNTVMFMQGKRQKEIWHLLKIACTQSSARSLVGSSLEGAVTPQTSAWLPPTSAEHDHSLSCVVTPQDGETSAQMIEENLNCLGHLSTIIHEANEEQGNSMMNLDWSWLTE

B1: clathrin heavy chain 1 (natural protein, human (endogenous in A549), UniProt Q00610 1-1675, looked up)
chain: MAQILPIRFQEHLQLQNLGINPANIGFSTLTMESDKFICIREKVGEQAQVVIIDMNDPSNPIRRPISADSAIMNPASKVIALKAGKTLQIFNIEMKSKMKAHTMTDDVTFWKWISLNTVALVTDNAVYHWSMEGESQPVKMFDRHSSLAGCQIINYRTDAKQKWLLLTGISAQQNRVVGAMQLYSVDRKVSQPIEGHAASFAQFKMEGNAEESTLFCFAVRGQAGGKLHIIEVGTPPTGNQPFPKKAVDVFFPPEAQNDFPVAMQISEKHDVVFLITKYGYIHLYDLETGTCIYMNRISGETIFVTAPHEATAGIIGVNRKGQVLSVCVEEENIIPYITNVLQNPDLALRMAVRNNLAGAEELFARKFNALFAQGNYSEAAKVAANAPKGILRTPDTIRRFQSVPAQPGQTSPLLQYFGILLDQGQLNKYESLELCRPVLQQGRKQLLEKWLKEDKLECSEELGDLVKSVDPTLALSVYLRANVPNKVIQCFAETGQVQKIVLYAKKVGYTPDWIFLLRNVMRISPDQGQQFAQMLVQDEEPLADITQIVDVFMEYNLIQQCTAFLLDALKNNRPSEGPLQTRLLEMNLMHAPQVADAILGNQMFTHYDRAHIAQLCEKAGLLQRALEHFTDLYDIKRAVVHTHLLNPEWLVNYFGSLSVEDSLECLRAMLSANIRQNLQICVQVASKYHEQLSTQSLIELFESFKSFEGLFYFLGSIVNFSQDPDVHFKYIQAACKTGQIKEVERICRESNCYDPERVKNFLKEAKLTDQLPLIIVCDRFDFVHDLVLYLYRNNLQKYIEIYVQKVNPSRLPVVIGGLLDVDCSEDVIKNLILVVRGQFSTDELVAEVEKRNRLKLLLPWLEARIHEGCEEPATHNALAKIYIDSNNNPERFLRENPYYDSRVVGKYCEKRDPHLACVAYERGQCDLELINVCNENSLFKSLSRYLVRRKDPELWGSVLLESNPYRRPLIDQVVQTALSETQDPEEVSVTVKAFMTADLPNELIELLEKIVLDNSVFSEHRNLQNLLILTAIKADRTRVMEYINRLDNYDAPDIANIAISNELFEEAFAIFRKFDVNTSAVQVLIEHIGNLDRAYEFAERCNEPAVWSQLAKAQLQKGMVKEAIDSYIKADDPSSYMEVVQAANTSGNWEELVKYLQMARKKARESYVETELIFALAKTNRLAELEEFINGPNNAHIQQVGDRCYDEKMYDAAKLLYNNVSNFGRLASTLVHLGEYQAAVDGARKANSTRTWKEVCFACVDGKEFRLAQMCGLHIVVHADELEELINYYQDRGYFEELITMLEAALGLERAHMGMFTELAILYSKFKPQKMREHLELFWSRVNIPKVLRAAEQAHLWAELVFLYDKYEEYDNAIITMMNHPTDAWKEGQFKDIITKVANVELYYRAIQFYLEFKPLLLNDLLMVLSPRLDHTRAVNYFSKVKQLPLVKPYLRSVQNHNNKSVNESLNNLFITEEDYQALRTSIDAYDNFDNISLAQRLEKHELIEFRRIAAYLFKGNNRWKQSVELCKKDSLYKDAMQYASESKDTELAEELLQWFLQEEKRECFGACLFTCYDLLRPDVVLETAWRHNIMDFAMPYFIQVMKEYLTKVDKLDASESLRKEEEQATETQPIVYGQPQLMLTAGPSVAVPPQAPFGYGYTAPPYGQPQPGFGYSM
notes: clathrin heavy chain 1 (CLTC), human, SwissProt entry name CLH1_HUMAN; also called CHC; CLH1; source: endogenous, A549 cells (M-PER lysate for the pull-down; fixed, permeabilised cells for FRET)
B2: IKKβ (natural protein, human (endogenous in A549), UniProt O14920 1-756, looked up)
chain: MSWSPSLTTQTCGAWEMKERLGTGGFGNVIRWHNQETGEQIAIKQCRQELSPRNRERWCLEIQIMRRLTHPNVVAARDVPEGMQNLAPNDLPLLAMEYCQGGDLRKYLNQFENCCGLREGAILTLLSDIASALRYLHENRIIHRDLKPENIVLQQGEQRLIHKIIDLGYAKELDQGSLCTSFVGTLQYLAPELLEQQKYTVTVDYWSFGTLAFECITGFRPFLPNWQPVQWHSKVRQKSEVDIVVSEDLNGTVKFSSSLPYPNNLNSVLAERLEKWLQLMLMWHPRQRGTDPTYGPNGCFKALDDILNLKLVHILNMVTGTIHTYPVTEDESLQSLKARIQQDTGIPEEDQELLQEAGLALIPDKPATQCISDGKLNEGHTLDMDLVFLFDNSKITYETQISPRPQPESVSCILQEPKRNLAFFQLRKVWGQVWHSIQTLKEDCNRLQQGQRAAMMNLLRNNSCLSKMKNSMASMSQQLKAKLDFFKTSIQIDLEKYSEQTEFGITSDKLLLAWREMEQAVELCGRENEVKLLVERMMALQTDIVDLQRSPMGRKQGGTLDDLEEQARELYRRLREKPRDQRTEGDSQEMVRLLLQAIQSFEKKVRVIYTQLSKTVVCKQKALELLPKVEEVVSLMNEDEKTVVRLQEKRQKELWNLLKIACSKVRGPVSGSPDSMNASRLSQPGQLMSQPSTASNSLPEPAKKSEELVAEAHNLCTLLENAIQDTVREQDQSFTALDWSWLQTEEEEHSCLEQAS
notes: also called IKBKB; source: endogenous, A549 cells (M-PER lysate for the pull-down; fixed, permeabilised cells for FRET)

Experiments:
Test in all cases: FRET or BRET; corrected FRET between fluorophore-labelled secondary antibodies (Alexa 488:Cy3, Cy3:Cy5) on primary antibodies, indirect immunofluorescence of acetone/methanol-fixed resting A549 cells, deconvolved Z-stacks; epitopes within about 30 nm; FRETN = cFRET normalised to the acceptor's emission, mean of four sets of experiments
[1] = target: IKKβ (human (endogenous in A549)) (UniProt O14920)
[2] = target: IKKα (human (endogenous in A549)) (UniProt O15111)
[3] = target: T1, IKKα; conditions: partners not purified
[4] = target: B2; conditions: partners not purified

normalized FRET (FRETN) [1]	normalized FRET (FRETN) [2]	normalized FRET (FRETN) [3]	normalized FRET (FRETN) [4]	Molecule
0.632	0.3			heat-shock protein-90 (from UniProt P07900 1-732) (natural protein)
		0.7	0.522	B1
		0.362		B2

Reference: article PMC4187570, “Clathrin complexes with the inhibitor kappa B kinase signalosome: imaging the interactome” (Physiological Reports, 2014)
